Data published in patent publication US20210023094A1 (PSMA DEVELOPMENT, published 2021).

Columns and labels:
[1] = target: T1, prostate-specific membrane antigen (PSMA), on cells (3T3-PSMA, C4-2, LNCaP) (Homo sapiens (Human), UniProt Q04609 1-750); test: cell-based or functional assay
[2] = target: T1, prostate-specific membrane antigen …; test: cell-based or functional assay; remark: listed apart in the source

T1 sequence (Q04609 whole entry): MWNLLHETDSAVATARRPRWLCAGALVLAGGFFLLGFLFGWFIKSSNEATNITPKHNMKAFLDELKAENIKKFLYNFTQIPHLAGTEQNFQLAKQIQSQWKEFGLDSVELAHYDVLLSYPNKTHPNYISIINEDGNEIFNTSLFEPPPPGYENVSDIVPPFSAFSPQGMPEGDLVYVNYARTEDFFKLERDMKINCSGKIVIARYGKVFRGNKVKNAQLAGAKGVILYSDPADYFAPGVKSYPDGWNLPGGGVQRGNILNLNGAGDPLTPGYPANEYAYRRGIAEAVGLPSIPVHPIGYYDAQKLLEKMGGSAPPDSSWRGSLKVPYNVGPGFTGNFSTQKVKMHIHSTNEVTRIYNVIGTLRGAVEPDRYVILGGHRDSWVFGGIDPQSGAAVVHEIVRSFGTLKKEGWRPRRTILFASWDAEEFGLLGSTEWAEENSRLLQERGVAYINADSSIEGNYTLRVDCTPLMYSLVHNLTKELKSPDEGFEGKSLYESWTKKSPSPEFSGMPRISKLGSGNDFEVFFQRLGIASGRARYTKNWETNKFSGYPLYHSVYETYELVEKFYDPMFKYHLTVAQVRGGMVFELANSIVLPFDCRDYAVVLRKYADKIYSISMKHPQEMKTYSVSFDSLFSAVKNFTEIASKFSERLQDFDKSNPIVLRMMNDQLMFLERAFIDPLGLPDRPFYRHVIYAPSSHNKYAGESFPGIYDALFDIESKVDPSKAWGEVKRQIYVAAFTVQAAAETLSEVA

B1: PSMA ADC (AB-PG1-XG1-006 conjugated to maleimidocaproyl-valine-citrulline-p-aminobenzylcarbamate-monomethyl auristatin E), Example 1 (antibody, V domains shown)
VH: QVQLVESGGGVVQPGRSLRLSCAASGFAFSRYGMHWVRQAPGKGLEWVAVIWYDGSNKYYADSVKGRFTISRDNSKNTQYLQMNSLRAEDTAVYYCARGGDFLYYYYYGMDVWGQGTTVTVSS
VL: DIQMTQSPSSLSASVGDRVTITCRASQGISNYLAWYQQKTGKVPKFLIYEASTLQSGVPSRFSGGGSGTDFTLTISSLQPEDVATYYCQNYNSAPFTFGPGTKVDIK
modifications: vcMMAE on cysteine thiols of reduced disulfides; 3.0-3.5 drugs per mAb in total
Q: With B1 as the binder, how does the “in vitro cytotoxicity IC50 on 3T3-PSMA cells (Alamar Blue, 4 days)” value [1] read?
A: The value was 0.208 nM.

Q: What about the “in vitro cytotoxicity IC50 on C4-2 cells (Alamar Blue, 4 days)” value [1] of the same binder?
A: The value was 0.065 nM.

Q: And the “in vitro cytotoxicity IC50 on LNCaP cells (Alamar Blue, 4 days)” value [1]?
A: The value was 0.083 nM.

B2: PSMA mAb mcMMAF (conjugate 699028C), Example 2 (antibody, V domains shown)
VH: B1 VH
VL: B1 VL
modifications: mcMMAF via thioether on interchain cysteine thiols; 4.4 drugs per mAb in total
Q: Which “in vitro potency IC50 on C4-2 cells (Alamar Blue, 4 days)” value (“in vitro potency IC50 on C4-2 cells” below) [2] does the source give for B2 here?
A: Its value is 0.042 nM.

B3: PSMA mAb vcMMAF (conjugate 699028B), Example 2 (antibody, V domains shown)
VH: B1 VH
VL: B1 VL
modifications: vcMMAF via thioether on interchain cysteine thiols; 4.4 drugs per mAb in total
Q: For B3, which “in vitro potency IC50 on C4-2 cells” value [2] is on record?
A: The value was 0.011 nM.

B4: PSMA mAb vcMMAE (conjugate 699028A), Example 2 (antibody, V domains shown)
VH: B1 VH
VL: B1 VL
modifications: vcMMAE via thioether on interchain cysteine thiols; 4.3 drugs per mAb in total
Q: How did the “in vitro potency IC50 on C4-2 cells” value [2] turn out when B4 was run?
A: Its value is 0.06 nM.
